Starred links: 1 amine or outer side, 2 acyl side, 3 side chain; linkers in the order of their positions; H or OH if unused. Non-standard residues stand in square brackets, D forms with d. *: point of attachment. NPipG = 2-(piperidin-4-ylamino)acetic acid, O=C(CN(C1CCN([*:3])CC1)[*:1])[*:2]; AC4Abu = α-carboxy-4-aminobutyric acid, O=C(C(CCN[*:1])C(=O)[*:3])[*:2]; Oic = O=C(O)[C@@H]1C[C@@H]2CCCC[C@@H]2N1; Phe(4-Cl) = N[C@@H](Cc1ccc(Cl)cc1)C(=O)O; γGlu = O=C(O)[C@H](CCC(=O)[*:2])N[*:1]; d(β3hF) = N[C@@H](CC(=O)O)Cc1ccccc1; Igl = N[C@H](C(=O)O)C1Cc2ccccc2C1; NMeR = CN[C@@H](CCCNC(=N)N)C(=O)O; Palmitoyl = CCCCCCCCCCCCCCCC(=O)*; Cha = N[C@@H](CC1CCCCC1)C(=O)O; αMeOrn = C[C@](N)(CCCN)C(=O)O; αMeP = C[C@@]1(C(=O)O)CCCN1; β3hP = O=C(O)C[C@@H]1CCCN1; Nle = CCCC[C@H](N)C(=O)O; Dab = NCC[C@H](N)C(=O)O; Dap = NC[C@H](N)C(=O)O; AEEA = NCCOCCOCC(=O)O; Aib = CC(C)(N)C(=O)O; Inp = O=C(O)C1CCNCC1; Nip = nipecotic acid; Sar = CNCC(=O)O
T1: human APJ receptor (human, UniProt P35414 1-380)
T1 sequence (looked up): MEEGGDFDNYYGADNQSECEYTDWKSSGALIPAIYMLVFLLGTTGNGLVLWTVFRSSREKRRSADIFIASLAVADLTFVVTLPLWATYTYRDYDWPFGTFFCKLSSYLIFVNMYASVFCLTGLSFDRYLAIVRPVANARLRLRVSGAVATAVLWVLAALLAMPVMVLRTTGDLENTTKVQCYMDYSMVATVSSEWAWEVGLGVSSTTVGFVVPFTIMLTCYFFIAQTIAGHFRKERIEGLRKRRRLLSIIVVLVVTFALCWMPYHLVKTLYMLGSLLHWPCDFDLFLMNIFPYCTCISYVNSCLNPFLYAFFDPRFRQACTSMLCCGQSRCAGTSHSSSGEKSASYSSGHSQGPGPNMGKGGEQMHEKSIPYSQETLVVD

T2: rat APJ receptor (rat, UniProt Q9JHG3 1-377)
T2 sequence (looked up): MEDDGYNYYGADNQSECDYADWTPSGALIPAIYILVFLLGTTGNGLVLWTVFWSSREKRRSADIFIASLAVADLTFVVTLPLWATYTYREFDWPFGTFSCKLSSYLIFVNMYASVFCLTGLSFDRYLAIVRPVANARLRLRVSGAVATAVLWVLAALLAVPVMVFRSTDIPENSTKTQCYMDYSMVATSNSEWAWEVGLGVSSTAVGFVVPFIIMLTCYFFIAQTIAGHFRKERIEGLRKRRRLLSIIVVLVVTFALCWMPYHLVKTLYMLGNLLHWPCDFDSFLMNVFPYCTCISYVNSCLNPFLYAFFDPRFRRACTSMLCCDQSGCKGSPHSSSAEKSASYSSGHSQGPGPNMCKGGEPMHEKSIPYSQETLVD


How the values were obtained:
human APJ receptor = target: T1, human APJ receptor; assay: cell-based or functional assay
rat APJ receptor = target: T2, rat APJ receptor; assay: cell-based or functional assay

Binder | EC50 Human APJ Receptor (human APJ receptor) | EC50 Rat APJ Receptor (rat APJ receptor)
Palmitoyl-[γGlu][AEEA][AEEA][dQ]RP[NMeR][Cha]SHKG[β3hP][Nle][Phe(4-Cl)]-OH (SMILES CCCCCCCCCCCCCCCC(=O)N[C@@H](CCC(=O)NCCOCCOCC(=O)NCCOCCOCC(=O)N[C@H](CCC(N)=O)C(=O)N[C@@H](CCCNC(=N)N)C(=O)N1CCC[C@H]1C(=O)N(C)[C@@H](CCCNC(=N)N)C(=O)N[C@@H](CC1CCCCC1)C(=O)N[C@@H](CO)C(=O)N[C@@H](Cc1c[nH]cn1)C(=O)N[C@@H](CCCCN)C(=O)NCC(=O)N1CCC[C@H]1CC(=O)N[C@@H](CCCC)C(=O)N[C@@H](Cc1ccc(Cl)cc1)C(=O)O)C(=O)O) [SEQ ID NO: 613] | 1.66 nM | 38.8 nM
Palmitoyl-[γGlu][AEEA][AEEA][dQ]RP[NMeR][Cha]SHK[Sar][Oic][Nle][β3hP][d(β3hF)]-OH (SMILES CCCCCCCCCCCCCCCC(=O)N[C@@H](CCC(=O)NCCOCCOCC(=O)NCCOCCOCC(=O)N[C@H](CCC(N)=O)C(=O)N[C@@H](CCCNC(=N)N)C(=O)N1CCC[C@H]1C(=O)N(C)[C@@H](CCCNC(=N)N)C(=O)N[C@@H](CC1CCCCC1)C(=O)N[C@@H](CO)C(=O)N[C@@H](Cc1c[nH]cn1)C(=O)N[C@@H](CCCCN)C(=O)N(C)CC(=O)N1[C@H](C(=O)N[C@@H](CCCC)C(=O)N2CCC[C@H]2CC(=O)N[C@@H](CC(=O)O)Cc2ccccc2)C[C@@H]2CCCC[C@@H]21)C(=O)O) [SEQ ID NO: 626] | 12.2 nM | 24.6 nM
Palmitoyl-[γGlu][AEEA][AEEA][dQ]RP[NMeR][Cha]SH[Dap]G[Oic][Nle][β3hP][d(β3hF)]-OH (SMILES CCCCCCCCCCCCCCCC(=O)N[C@@H](CCC(=O)NCCOCCOCC(=O)NCCOCCOCC(=O)N[C@H](CCC(N)=O)C(=O)N[C@@H](CCCNC(=N)N)C(=O)N1CCC[C@H]1C(=O)N(C)[C@@H](CCCNC(=N)N)C(=O)N[C@@H](CC1CCCCC1)C(=O)N[C@@H](CO)C(=O)N[C@@H](Cc1c[nH]cn1)C(=O)N[C@@H](CN)C(=O)NCC(=O)N1[C@H](C(=O)N[C@@H](CCCC)C(=O)N2CCC[C@H]2CC(=O)N[C@@H](CC(=O)O)Cc2ccccc2)C[C@@H]2CCCC[C@@H]21)C(=O)O) [SEQ ID NO: 624] | 21.1 nM | 99.7 nM
Palmitoyl-[γGlu][AEEA][AEEA][dQ]RP[NMeR][Cha]SH[Dab]G[Oic][Nle][β3hP][d(β3hF)]-OH (SMILES CCCCCCCCCCCCCCCC(=O)N[C@@H](CCC(=O)NCCOCCOCC(=O)NCCOCCOCC(=O)N[C@H](CCC(N)=O)C(=O)N[C@@H](CCCNC(=N)N)C(=O)N1CCC[C@H]1C(=O)N(C)[C@@H](CCCNC(=N)N)C(=O)N[C@@H](CC1CCCCC1)C(=O)N[C@@H](CO)C(=O)N[C@@H](Cc1c[nH]cn1)C(=O)N[C@@H](CCN)C(=O)NCC(=O)N1[C@H](C(=O)N[C@@H](CCCC)C(=O)N2CCC[C@H]2CC(=O)N[C@@H](CC(=O)O)Cc2ccccc2)C[C@@H]2CCCC[C@@H]21)C(=O)O) [SEQ ID NO: 623] | 1.43 nM | 9.16 nM
Palmitoyl-[AC4Abu][AEEA][AEEA][dQ]RP[NMeR][Cha]SHKG[Oic][Nle]P[d(β3hF)]-OH (SMILES CCCCCCCCCCCCCCCC(=O)NCCC(C(=O)O)C(=O)NCCOCCOCC(=O)NCCOCCOCC(=O)N[C@H](CCC(N)=O)C(=O)N[C@@H](CCCNC(=N)N)C(=O)N1CCC[C@H]1C(=O)N(C)[C@@H](CCCNC(=N)N)C(=O)N[C@@H](CC1CCCCC1)C(=O)N[C@@H](CO)C(=O)N[C@@H](Cc1c[nH]cn1)C(=O)N[C@@H](CCCCN)C(=O)NCC(=O)N1[C@H](C(=O)N[C@@H](CCCC)C(=O)N2CCC[C@H]2C(=O)N[C@@H](CC(=O)O)Cc2ccccc2)C[C@@H]2CCCC[C@@H]21) [SEQ ID NO: 567] | 5.15 nM | 8.89 nM
Palmitoyl-[AC4Abu][AEEA][AEEA][dQ]RP[NMeR][Cha]SHKG[Oic][Nle][αMeP][d(β3hF)]-OH (SMILES CCCCCCCCCCCCCCCC(=O)NCCC(C(=O)O)C(=O)NCCOCCOCC(=O)NCCOCCOCC(=O)N[C@H](CCC(N)=O)C(=O)N[C@@H](CCCNC(=N)N)C(=O)N1CCC[C@H]1C(=O)N(C)[C@@H](CCCNC(=N)N)C(=O)N[C@@H](CC1CCCCC1)C(=O)N[C@@H](CO)C(=O)N[C@@H](Cc1c[nH]cn1)C(=O)N[C@@H](CCCCN)C(=O)NCC(=O)N1[C@H](C(=O)N[C@@H](CCCC)C(=O)N2CCC[C@@]2(C)C(=O)N[C@@H](CC(=O)O)Cc2ccccc2)C[C@@H]2CCCC[C@@H]21) [SEQ ID NO: 570] | 8.01 nM | 19.8 nM
Palmitoyl-[γGlu][AEEA][AEEA][dQ]RP[NMeR][Cha]SH[NPipG]G[Oic][Nle][β3hP][d(β3hF)]-OH (SMILES CCCCCCCCCCCCCCCC(=O)N[C@@H](CCC(=O)NCCOCCOCC(=O)NCCOCCOCC(=O)N[C@H](CCC(N)=O)C(=O)N[C@@H](CCCNC(=N)N)C(=O)N1CCC[C@H]1C(=O)N(C)[C@@H](CCCNC(=N)N)C(=O)N[C@@H](CC1CCCCC1)C(=O)N[C@@H](CO)C(=O)N[C@@H](Cc1c[nH]cn1)C(=O)N(CC(=O)NCC(=O)N1[C@H](C(=O)N[C@@H](CCCC)C(=O)N2CCC[C@H]2CC(=O)N[C@@H](CC(=O)O)Cc2ccccc2)C[C@@H]2CCCC[C@@H]21)C1CCNCC1)C(=O)O) [SEQ ID NO: 633] | 10.7 nM | > 4170 nM

The remaining lines, values ahead:

EC50 Human APJ Receptor (human APJ receptor) | EC50 Rat APJ Receptor (rat APJ receptor) | Binder
26.2 nM | 125 nM | Palmitoyl-[γGlu][AEEA][AEEA][dQ]RP[NMeR][Cha]SH[αMeOrn]G[Oic][Nle][β3hP][d(β3hF)]-OH (SMILES CCCCCCCCCCCCCCCC(=O)N[C@@H](CCC(=O)NCCOCCOCC(=O)NCCOCCOCC(=O)N[C@H](CCC(N)=O)C(=O)N[C@@H](CCCNC(=N)N)C(=O)N1CCC[C@H]1C(=O)N(C)[C@@H](CCCNC(=N)N)C(=O)N[C@@H](CC1CCCCC1)C(=O)N[C@@H](CO)C(=O)N[C@@H](Cc1c[nH]cn1)C(=O)N[C@@](C)(CCCN)C(=O)NCC(=O)N1[C@H](C(=O)N[C@@H](CCCC)C(=O)N2CCC[C@H]2CC(=O)N[C@@H](CC(=O)O)Cc2ccccc2)C[C@@H]2CCCC[C@@H]21)C(=O)O) [SEQ ID NO: 619]
11.1 nM | 20 nM | Palmitoyl-[γGlu][AEEA][AEEA][dQ]RP[NMeR][Cha]SH[Igl]G[Oic][Nle][β3hP][d(β3hF)]-OH (SMILES CCCCCCCCCCCCCCCC(=O)N[C@@H](CCC(=O)NCCOCCOCC(=O)NCCOCCOCC(=O)N[C@H](CCC(N)=O)C(=O)N[C@@H](CCCNC(=N)N)C(=O)N1CCC[C@H]1C(=O)N(C)[C@@H](CCCNC(=N)N)C(=O)N[C@@H](CC1CCCCC1)C(=O)N[C@@H](CO)C(=O)N[C@@H](Cc1c[nH]cn1)C(=O)N[C@H](C(=O)NCC(=O)N1[C@H](C(=O)N[C@@H](CCCC)C(=O)N2CCC[C@H]2CC(=O)N[C@@H](CC(=O)O)Cc2ccccc2)C[C@@H]2CCCC[C@@H]21)C1Cc2ccccc2C1)C(=O)O) [SEQ ID NO: 625]
1 nM | 0.991 nM | Palmitoyl-[AC4Abu][AEEA][AEEA][dQ]RP[NMeR][Cha]SHKG[Oic][Nle][Aib][d(β3hF)]-OH (SMILES CCCCCCCCCCCCCCCC(=O)NCCC(C(=O)O)C(=O)NCCOCCOCC(=O)NCCOCCOCC(=O)N[C@H](CCC(N)=O)C(=O)N[C@@H](CCCNC(=N)N)C(=O)N1CCC[C@H]1C(=O)N(C)[C@@H](CCCNC(=N)N)C(=O)N[C@@H](CC1CCCCC1)C(=O)N[C@@H](CO)C(=O)N[C@@H](Cc1c[nH]cn1)C(=O)N[C@@H](CCCCN)C(=O)NCC(=O)N1[C@H](C(=O)N[C@@H](CCCC)C(=O)NC(C)(C)C(=O)N[C@@H](CC(=O)O)Cc2ccccc2)C[C@@H]2CCCC[C@@H]21) [SEQ ID NO: 569]
8.5 nM | 29.3 nM | Palmitoyl-[AC4Abu][AEEA][AEEA][dQ]RP[NMeR][Cha]SHKG[Nip][Nle][Aib][Phe(4-Cl)]-OH [SEQ ID NO: 582]
5.96 nM | 49.2 nM | Palmitoyl-[AC4Abu][AEEA][AEEA][dQ]RP[NMeR][Cha]SHKG[Inp][Nle][Aib][Phe(4-Cl)]-OH (SMILES CCCCCCCCCCCCCCCC(=O)NCCC(C(=O)O)C(=O)NCCOCCOCC(=O)NCCOCCOCC(=O)N[C@H](CCC(N)=O)C(=O)N[C@@H](CCCNC(=N)N)C(=O)N1CCC[C@H]1C(=O)N(C)[C@@H](CCCNC(=N)N)C(=O)N[C@@H](CC1CCCCC1)C(=O)N[C@@H](CO)C(=O)N[C@@H](Cc1c[nH]cn1)C(=O)N[C@@H](CCCCN)C(=O)NCC(=O)N1CCC(C(=O)N[C@@H](CCCC)C(=O)NC(C)(C)C(=O)N[C@@H](Cc2ccc(Cl)cc2)C(=O)O)CC1) [SEQ ID NO: 583]

— patent US10941182 (Amgen, dated 2021)
